From US7528226B2, “TGFβ1-inhibitor peptides” (Rojecto de Biomedicina Cima S.L., priority 1998, dated 2009)
No end group written: not given here.

Assays:
TGFβ1 cell receptors = system: TGFβ1 cell receptors; design: species or system human; details: inhibition of binding of TGFβ1 to its cell receptors, MV-1-Lu cells; peptide concentration 420 μg/ml
Source text: An immunofluorescence kit was used for this (Fluorokine rh TGFβ-biotin, R&D Systems Europe Ltd., Abingdon, UK). This test is based on the capacity of biotinylated TGFβ1 to bind to the cell receptors, in a specific manner, and the subsequent interaction of the biotin with fluorescein-labelled avidin, so that the signal intensity will depend on the quantity of TGFβ1 bound to the cell receptors.
The MV-1-Lu cells grown in 162 cm^2 flasks were removed using solution 1 (described previously) and were resuspended in physiological saline for centrifugation at 500×g for 5 minutes. After centrifugation, the cells were resuspended again in physiological saline at a concentration of 4×10^6 cells/ml. 25 μl of the cell suspension was added to 12×75 mm borosilicate tubes, to which was added the peptide to be tested in 40 μl of RPMI 1640 medium, giving a final concentration of 0.42 μg/μl and 10 μl of biotinylated TGFβ1. […]
At the end of the incubation period, 10 μl of fluorescein-labelled avidin was added, incubating for 30 minutes at 4° C. in darkness, after which 2 ml of a washing solution (RDF1) was added, followed by centrifugation at 500×g for 6 minutes. […] This method permits measurement of the fluorescence emitted by each cell when a laser beam is incident upon it, by means of a computer program (Lisys™ II, Becton Dickinson Immunocytometry Systems, California, USA).
Once the fields had been delimited, the percentage of cells located in each of them was calculated. […]
Peptides derived from previous syntheses, both those that were synthesized from the sequence of TGFβ1 and those from the type III receptor, were used for measuring, by flow cytometry, their capacity to inhibit the binding of TGFβ1 to the cell receptors. In these tests the cells are incubated with the peptide before adding TGFβ1-biotin, which will be detected using avidin-FITC (Material and Methods). Then the fluorescence emitted by the avidin-FITC is measured: this will be directly proportional to the quantity of TGFβ1 bound to the cells and inversely proportional to the activity of the peptide.

TGFβ1 = target: T1, TGFβ1 (Homo sapiens, UniProt P01137); format: cell-based; details: TGFβ1 200 pg/ml; for Bioassay (% inhibition): inhibition of TGFβ1 activity, growth of MV-1-Lu cells, peptide concentration 200 μg/ml; for inhibitory activity of TGFβ1 (in words): peptide 200 μg/ml, MV-1-Lu cells
T1 construct: the mature TGFβ1 is released by another cut; purchased R&D Systems Europe Ltd., Abingdon, UK
T1 sequence (P01137 279-390): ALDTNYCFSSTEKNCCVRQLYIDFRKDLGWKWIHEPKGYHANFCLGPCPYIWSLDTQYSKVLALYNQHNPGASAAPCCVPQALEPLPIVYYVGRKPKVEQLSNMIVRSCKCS
Experimental: A line derived from mink pulmonary epithelium, MV-1-Lu, was used (CCL-64, American Type Cell Culture, Virginia, USA). The cells were grown in 162 cm^2 culture flasks (Costar Corporation, Cambridge, USA) in a stove at 37° C. and 5% CO2, until subconfluence was attained. A complete medium was used: RPMI 1640 with L-glutamine (GibcoBRL, Life Technologies Ltd., Paisley, Scotland) supplemented with 5% of foetal calf serum (FCS, Biological Industries, Kibbutz Beit Haemek, Israel), 10 mM HEPES (1M HEPES Buffer, Bio-Whittaker, Verviers, Belgium) and antibiotics (100 U/ml penicillin and 100 μ/ml streptomycin).
The MV-1-Lu cells grown as indicated above were removed from the bottom of the culture flasks using 5 ml of trypsin-EDTA (Biological Industries, Kibbutz Beit Haemek, Israel), resuspended in complete medium and centrifuged at 1500 rev/min for 8 minutes. After centrifugation the cells were resuspended in complete medium to a concentration of 50,000 cells/ml. For conducting the test, 10 ml of the cell suspension were taken and dispensed in 96-well, flat-bottom culture plates (Costar Corporation, Cambridge, USA), adding 100 μl/well, and were incubated overnight at 37° C. and 5% CO2, which permits adhesion of the cells to the bottom of the wells. […] The final concentration of FCS in the well was 2.5%. After 24 hours of incubation, 1 μCi of tritiated thymidine was added per well (25 Ci/mmol [methyl-^3H]-thymidine, Amersham Life Science, Buckinghamshire, UK) with incubation for a further 12 hours (Grubeck-Loebenstein B. et al. (1989) J. Clin. Invest. 83:764-770; Brennan F M et al. (1990) Clin. Exp. Immunol. 81:278-285).
At the end of the incubation periods the cells were removed from the bottom of the wells with trypsin-EDTA and were collected using a manual harvester (Titertek cell harvester, Skatron Instruments Inc., Sterling, USA) which ruptures the cells, collecting the DNA in nitrocellulose filters (Filter MAT 11731, Skatron Instruments Inc., Sterling, USA) where it is fixed. The filters were placed individually in 5 ml polypropylene tubes to which 4 ml of scintillation fluid was added (Biogreen-11, Reactivos Scharlau S. A., Barcelona, Spain). The activity of each tube was quantified for 90 seconds in a β LKB scintillation counter (Beta plate system, LKB, Uppsala, Sweden).
TGFβ1 is a cytokine that is able to inhibit the growth in vitro of the MV-1-Lu cell line (Grubeck-Loebenstein B. et al. (1989) J. Clin. Invest. 83:764-770; Brennan F M et al. (1990) Clin. Exp. Immunol. 81:278-285), therefore this line was used for testing the blocking effect of peptides on TGFβ1. After different combinations of media, cells and thymidine, we studied the effect of different concentrations of TGFβ1 on incorporation of [methyl-^3H]thymidine by MV-1-Lu cells in culture, for determining the most suitable conditions for the test. […]
(§1) The synthetic peptides that are potentially inhibitors of TGFβ1 activity, selected as indicated above in the section: selection of the peptides to be synthesized (both those derived from proteins that bind to TGFβ1 itself) were tested using the MV-1-Lu cell line. The selected peptides are soluble in buffered RPMI medium. The peptides were dissolved in buffered RPMI medium, free from foetal calf serum, and the following was used.
The peptides belonging to the sequence of the receptor, or complementary to the peaks of hydrophilicity of TGFβ1, were incubated for 30 minutes in the presence of this cytokine and were then combined with the cell culture. The peptides derived from the sequence of TGFβ1 were added to the cell culture prior to addition of TGFβ1, since they interact with the receptors of the cell surface. These incubations were effected in 100 μl of the same medium as was used for adding the cells. The active peptides permitted cell growth to a greater or lesser degree depending on its ability to inhibit TGFβ1.

[1] = Solubility of the peptides in the test medium; format: physicochemical
Experimental: as §1
The effect of the concentration of peptide P12 on inhibition of the activity of TGFβ1 was investigated.
The effect of the concentration of peptide P54 on inhibition of the activity of TGFβ1 was investigated.

Row | Bioassay (% inhibition) (TGFβ1) [%] | inhibitory activity of TGFβ1 (in words) (TGFβ1) | Substance | Cytometry (% inhibition) (TGFβ1 cell receptors) [%] | solubility in the test medium [1] | dependence of the inhibitory activity on the peptide concentration (TGFβ1; dose-response test) | inhibitory activity of nominal concentrations of peptide, before and after filtration (TGFβ1; dose-response test, filtered vs unfiltered stock)
1 | 18.2 | – | LYNQHNPGASAAPCC (cysteine pairing not given here) [P18] | 6.5 | – | – | –
2 | 40 | – | HANFCLGPCPYIWSL (cysteine pairing not given here) [P11] | 86 | – | – | –
3 | – | not found to be active | CDIHVLKQDGFSVLFTKCD (cysteine pairing not given here) [P149] | – | – | – | –

The remaining lines, values behind:

Row | Substance | Bioassay (% inhibition) (TGFβ1) [%] | inhibitory activity of TGFβ1 (in words) (TGFβ1) | Cytometry (% inhibition) (TGFβ1 cell receptors) [%] | solubility in the test medium [1] | dependence of the inhibitory activity on the peptide concentration (TGFβ1; dose-response test) | inhibitory activity of nominal concentrations of peptide, before and after filtration (TGFβ1; dose-response test, filtered vs unfiltered stock)
4 | CysValAlaValTrpArgLysAsnAspGluAsnIleThrLeuGluThrValCys (CVAVWRKNDENITLETVC; Synthetic peptide from rat TGB beta 1 type III receptor, position 84-101) [P146] | – | not found to be active | – | – | – | –
5 | TSLDATMIWTMM [P54] | 97 | capable of inhibiting the activity of TGFβ1 almost completely | 82.3 | low solubility | inhibit the activity of TGFβ1 in a manner that depends on the dose used | no measurable inhibitory activity in the filtrate
6 | SNPYSAFQVDIIVDI [P106, SerAsnProTyrSerAlaPheGlnValAspIleIleValAspIle] | – | had also demonstrated activity | – | – | – | –
